From patent publication US20180282719A1 (published 2018)

T1: recombinant soluble human IL-6 receptor (SR344) (human, UniProt P08887 20-344, biotinylated (sites not given) where immobilized via streptavidin or used in phage ELISA)
T1 construct: also called soluble IL-6 receptor; membrane-type IL-6 receptor (when biotinylated and immobilized on the chip)
T1 sequence (looked up): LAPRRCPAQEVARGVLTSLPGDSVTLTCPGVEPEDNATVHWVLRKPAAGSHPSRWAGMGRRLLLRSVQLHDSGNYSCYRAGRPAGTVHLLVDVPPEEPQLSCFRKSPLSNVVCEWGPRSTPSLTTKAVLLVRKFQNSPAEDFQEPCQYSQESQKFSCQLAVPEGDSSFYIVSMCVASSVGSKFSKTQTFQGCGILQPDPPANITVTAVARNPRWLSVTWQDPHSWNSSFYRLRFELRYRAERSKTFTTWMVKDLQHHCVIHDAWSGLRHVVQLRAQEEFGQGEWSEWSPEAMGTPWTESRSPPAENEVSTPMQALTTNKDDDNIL


What was measured:
[1] = molecular target: T1, recombinant soluble human IL-6 receptor …; test: SPR Biacore T100, biotinylated SR344 on streptavidin chip (model of membrane IL-6 receptor), antibody 0.5 ug/mL as analyte, 37 C
Description: (§1) The binding to membrane IL-6 receptor was evaluated by evaluating the binding to the IL-6 receptor immobilized onto a sensor chip. SR344 was biotinylated according to a method known to persons skilled in the art, and the biotinylated SR344 was immobilized on the sensor chip via streptavidin by utilizing the affinity between streptavidin and biotin. All the measurements were carried out at 37° C., and the mobile phase buffer contained 10 mM MES (pH 5.8), 150 mM NaCl and 0.05% TWEEN® 20 (polyoxyethelene sorbitan monolaurate). The pH-dependent binding clones were injected therein under the condition of pH 7.4 and allowed to bind to SR344 (injection sample buffer: 10 mM MES (pH 7.4), 150 mM NaCl, 0.05% TWEEN® 20 (polyoxyethelene sorbitan monolaurate)), and the pH-dependent dissociation of each clone at the mobile phase pH of 5.8 was observed (FIG. 10).
(§2) The dissociation rate […]) at pH 5.8 was calculated using Biacore T100™ Evaluation Software (GE Healthcare) by fitting only the dissociation phase at pH 5.8, where 0.5 μg/mL of the sample was bound in 10 mM MES (pH 7.4), 150 mM NaCl, and 0.05% TWEEN® 20 (polyoxyethelene sorbitan monolaurate), and dissociated in 10 mM MES (pH 5.8), 150 mM NaCl, and 0.05% TWEEN® 20 (polyoxyethelene sorbitan monolaurate). Similarly, the dissociation rate (kd(1/s)) at pH 7.4 was calculated using Biacore T100™ Evaluation Software (GE Healthcare) by fitting only the dissociation phase at pH 7.4, where 0.5 μg/mL of the sample was bound in 10 mM MES (pH 7.4), 150 mM NaCl, and 0.05% TWEEN® 20 (polyoxyethelene sorbitan monolaurate), and dissociated in 10 mM MES (pH 7.4), 150 mM NaCl, and 0.05% TWEEN® 20 (polyoxyethelene sorbitan monolaurate).

[2] = molecular target: T1, recombinant soluble human IL-6 receptor …; test: SPR Biacore T100, biotinylated SR344 on streptavidin chip (model of membrane-type IL-6 receptor), antibody as analyte, bound at pH 7.4, dissociation at pH 7.4, 37 C
[3] = molecular target: T1, recombinant soluble human IL-6 receptor …; test: SPR Biacore T100, biotinylated SR344 on streptavidin chip (model of membrane IL-6 receptor), antibody 0.5 ug/mL as analyte, bound at pH 7.4, dissociation at pH 5.8, 37 C
Description: as §1, §2

[4] = molecular target: T1, recombinant soluble human IL-6 receptor …; test: SPR Biacore T100, antibody on protein A/G chip, SR344 analyte, 37 C, ratio of pH 5.8 to pH 7.4
Description: Kinetic analysis of antigen-antibody reactions at pH 7.4 and pH 5.8 was carried out using a Biacore T100™ surface plasmon resonance system (GE Healthcare) for the four types of antibodies prepared: WT-IgG1, H54/L28-IgG1, H170/L82-IgG1, and Fv4-IgG1 (buffer: 10 mM MES (pH 7.4 or pH 5.8), 150 mM NaCl, 0.05% Surfactant P20 (polyoxyethelene sorbitan monolaurate)). The antibodies were bound to a sensor chip on which recomb-protein A/G (Pierce) was immobilized by amine coupling, and SR344 adjusted to an appropriate concentration was injected therein as an analyte. The association with and dissociation from SR344 of each type of antibody were observed on a real-time basis. All the measurements were carried out at 37° C. Association rate constants kₐ (1/Ms) and dissociation rate constants kd (1/s) were calculated using Biacore T100™ Evaluation Software (GE Healthcare), and dissociation constants KD (M) were calculated based on those values (Table 17).

Row | Binder | kd ratio pH 5.8/pH 7.4 [1] | koff [2] [s⁻¹] | koff [3] [s⁻¹] | KD (pH 5.8)/KD (pH 7.4) [4] | kd (pH 5.8)/kd (pH 7.4) [4]
1 | H3pI/L73 (antibody, IgG1, V domains shown, tested as IgG1; also called H3pI/L73-IgG1; H3pl/L73) VH: QVQLQESGPGLVKPSETLSLTCAVSGHSISHDHAHSWVRQPPGEGLEWIGYISYSGITNYNPSLKGRVTISRDTSKNQFSLKLSSVTAADTAAYYCARSLARTTAMDYWGEGTLVTVSS VL: DIQMTQSPSSLSASVGDSVTITCQASQHISSHLNWYQQKPGKAPELLIYYGSHLHSGVPSRFSGSGSGTDFTFTISSLEAEDAATYYCGQGNRLPYTFGQGTKVEIE | 11 | 0.00026 | 0.00378 |  | 
2 | H170/L82 (antibody, IgG1, V domains shown, expressed and purified as IgG (IgG1); also called H170/L82-IgG1) VH: QVQLQESGPGLVKPSETLSLTCAVSGHSISHHHAHSWVRQPPGEGLEWIGYISYSGITHYNPHLKGRVTISRDTSKNQFSLKLSSVTAADTAAYYCARVLARITAMDHWGEGTLVTVSS VL: DIQMTQSPSSLSASVGDSVTITCQASQDISSHLNWYQQKPGKAPELLIYYGSHLHSGVPSRFSGSGSGTDFTFTISSLEAEDAATYYCGQGNRLPYTFGQGTKVEIE | 1.9 |  | 0.00144 | 61.9 | 11.4
3 | humanized PM1 antibody (wild type, WT) (antibody, human IgG1, kappa, V domains shown, IgG1; also called WT-IgG1; wild type humanized anti-IL-6 receptor antibody) VH: QVQLQESGPGLVRPSQTLSLTCTVSGYSITSDHAWSWVRQPPGRGLEWIGYISYSGITTYNPSLKSRVTMLRDTSKNQFSLRLSSVTAADTAVYYCARSLARTTAMDYWGQGSLVTVSS VL: DIQMTQSPSSLSASVGDRVTITCRASQDISSYLNWYQQKPGKAPKLLIYYTSRLHSGVPSRFSGSGSGTDFTFTISSLQPEDIATYYCQQGNTLPYTFGQGTKVEIKR | 1.5 | 0.00025 | 0.000715 | 1.6 | 2.9
4 | Fv4-IgG1 (antibody, VH3-IgG1 / VL3-CK) heavy: not shown light: DIQMTQSPSSLSASVGDSVTITCQASTDISSHLNWYQQKPGKAPELLIYYGSHLLSGVPSRFSGSGSGTDFTFTISSLEAEDAATYYCGQGNRLPYTFGQGTKVEIERTVAAPSVFIFPPSDEQLKSGTASVVCLLNNFYPREAKVQWKVDNALQSGNSQESVTEQDSKDSTYSLSSTLTLSKADYEKHKVYACEVTHQGLSSPVTKSFNRGEC |  | 0.00047 |  | 27.3 | 38.8
